{
  "source": "IntAct's records for PubMed 16905657",
  "parents": {"B1": {"name": "Clathrin heavy chain 1 (Arabidopsis thaliana (Mouse-ear cress)), Q0WNJ6 (parent)", "chain": "MAAANAPIIMKEVLTLPSVGIGQQFITFTNVTMESDKYICVRETAPQNSVVIIDMNMPMQPLRRPITADSALMNPNSRILALKAQVPGTTQDHLQIFNIEAKAKLKSHQMPEQVAFWKWITPKMLGLVTQTSVYHWSIEGDSEPVKMFDRTANLANNQIINYKCSPNEKWLVLIGIAPGSPERPQLVKGNMQLFSVDQQRSQALEAHAASFAQFKVPGNENPSILISFASKSFNAGQITSKLHVIELGAQPGKPSFTKKQADLFFPPDFADDFPVAMQVSHKFNLIYVITKLGLLFVYDLETASAIYRNRISPDPIFLTSEASSVGGFYAINRRGQVLLATVNEATIIPFISGQLNNLELAVNLAKRGNLPGAENLVVQRFQELFAQTKYKEAAELAAESPQGILRTPDTVAKFQSVPVQAGQTPPLLQYFGTLLTRGKLNSYESLELSRLVVNQNKKNLLENWLAEDKLECSEELGDLVKTVDNDLALKIYIKARATPKVVAAFAERREFDKILIYSKQVGYTPDYMFLLQTILRTDPQGAVNFALMMSQMEGGCPVDYNTITDLFLQRNLIREATAFLLDVLKPNLPEHAFLQTKVLEINLVTFPNVADAILANGMFSHYDRPRVAQLCEKAGLYIQSLKHYSELPDIKRVIVNTHAIEPQALVEFFGTLSSEWAMECMKDLLLVNLRGNLQIIVQACKEYCEQLGVDACIKLFEQFKSYEGLYFFLGSYLSMSEDPEIHFKYIEAAAKTGQIKEVERVTRESNFYDAEKTKNFLMEAKLPDARPLINVCDRFGFVPDLTHYLYTNNMLRYIEGYVQKVNPGNAPLVVGQLLDDECPEDFIKGLILSVRSLLPVEPLVAECEKRNRLRLLTQFLEHLVSEGSQDVHVHNALGKIIIDSNNNPEHFLTTNPYYDSKVVGKYCEKRDPTLAVVAYRRGQCDEELINVTNKNSLFKLQARYVVERMDGDLWEKVLTEENEYRRQLIDQVVSTALPESKSPEQVSAAVKAFMTADLPHELIELLEKIVLQNSAFSGNFNLQNLLILTAIKADPSRVMDYINRLDNFDGPAVGEVAVDAQLYEEAFAIFKKFNLNVQAVNVLLDNVRSIERAVEFAFRVEEDAVWSQVAKAQLREGLVSDAIESFIRADDTTQFLEVIRASEDTNVYDDLVRYLLMVRQKVKEPKVDSELIYAYAKIERLGEIEEFILMPNVANLQHVGDRLYDEALYEAAKIIYAFISNWAKLAVTLVKLQQFQGAVDAARKANSAKTWKEVCFACVDAEEFRLAQICGLNIIIQVDDLEEVSEYYQNRGCFNELISLMESGLGLERAHMGIFTELGVLYARYRYEKLMEHIKLFSTRLNIPKLIRACDEQQHWQELTYLYIQYDEFDNAATTVMNHSPEAWEHMQFKDIVAKVANVELYYKAVHFYLQEHPDIINDLLNVLALRLDHTRVVDIMRKAGHLRLIKPYMVAVQSNNVSAVNEALNEIYAEEEDYDRLRESIDLHDSFDQIGLAQKIEKHELVEMRRVAAYIYKKAGRWKQSIALSKKDNMYKDCMETASQSGDHDLAEQLLVYFIEQGKKECFATCLFVCYDLIRPDVALELAWINNMIDFAFPYLLQFIREYSGKVDELIKDKLEAQKEVKAKEQEEKDVMSQQNMYAQLLPLALPAPPMPGMGGGGYGPPPQMGGMPGMSGMPPMPPYGMPPMGGY", "partner": "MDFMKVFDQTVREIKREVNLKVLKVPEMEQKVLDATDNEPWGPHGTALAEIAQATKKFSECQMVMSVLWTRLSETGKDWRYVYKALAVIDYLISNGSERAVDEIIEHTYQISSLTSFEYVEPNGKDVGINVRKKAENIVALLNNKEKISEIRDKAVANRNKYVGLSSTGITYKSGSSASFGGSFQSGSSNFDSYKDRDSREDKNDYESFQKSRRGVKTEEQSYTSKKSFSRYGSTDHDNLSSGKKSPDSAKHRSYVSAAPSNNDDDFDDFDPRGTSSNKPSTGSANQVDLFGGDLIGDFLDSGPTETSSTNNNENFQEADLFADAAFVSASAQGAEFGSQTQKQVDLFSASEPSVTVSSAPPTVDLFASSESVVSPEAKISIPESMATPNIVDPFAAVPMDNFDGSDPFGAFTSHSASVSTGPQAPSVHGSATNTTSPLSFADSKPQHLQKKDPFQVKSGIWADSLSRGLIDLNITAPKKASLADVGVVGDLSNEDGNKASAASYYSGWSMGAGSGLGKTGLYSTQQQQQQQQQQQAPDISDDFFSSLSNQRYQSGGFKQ"}},
  "data": [
    {"variants_of": "B1", "settings": "with epn1_arath EPSIN1, Q8VY07", "values": [
      {"variant": "L470R", "effect of a mutation on the interaction": "disrupting interaction"}
    ]}
  ]
}
